Assay results from patent US20240425885.

Assays:
Assay in all cases: cleavage_in_vitro
[1] = test system: T1, OMNI-135 (metagenomic, unknown); conditions: TXTL; PAM NNWACCNN
T1 sequence: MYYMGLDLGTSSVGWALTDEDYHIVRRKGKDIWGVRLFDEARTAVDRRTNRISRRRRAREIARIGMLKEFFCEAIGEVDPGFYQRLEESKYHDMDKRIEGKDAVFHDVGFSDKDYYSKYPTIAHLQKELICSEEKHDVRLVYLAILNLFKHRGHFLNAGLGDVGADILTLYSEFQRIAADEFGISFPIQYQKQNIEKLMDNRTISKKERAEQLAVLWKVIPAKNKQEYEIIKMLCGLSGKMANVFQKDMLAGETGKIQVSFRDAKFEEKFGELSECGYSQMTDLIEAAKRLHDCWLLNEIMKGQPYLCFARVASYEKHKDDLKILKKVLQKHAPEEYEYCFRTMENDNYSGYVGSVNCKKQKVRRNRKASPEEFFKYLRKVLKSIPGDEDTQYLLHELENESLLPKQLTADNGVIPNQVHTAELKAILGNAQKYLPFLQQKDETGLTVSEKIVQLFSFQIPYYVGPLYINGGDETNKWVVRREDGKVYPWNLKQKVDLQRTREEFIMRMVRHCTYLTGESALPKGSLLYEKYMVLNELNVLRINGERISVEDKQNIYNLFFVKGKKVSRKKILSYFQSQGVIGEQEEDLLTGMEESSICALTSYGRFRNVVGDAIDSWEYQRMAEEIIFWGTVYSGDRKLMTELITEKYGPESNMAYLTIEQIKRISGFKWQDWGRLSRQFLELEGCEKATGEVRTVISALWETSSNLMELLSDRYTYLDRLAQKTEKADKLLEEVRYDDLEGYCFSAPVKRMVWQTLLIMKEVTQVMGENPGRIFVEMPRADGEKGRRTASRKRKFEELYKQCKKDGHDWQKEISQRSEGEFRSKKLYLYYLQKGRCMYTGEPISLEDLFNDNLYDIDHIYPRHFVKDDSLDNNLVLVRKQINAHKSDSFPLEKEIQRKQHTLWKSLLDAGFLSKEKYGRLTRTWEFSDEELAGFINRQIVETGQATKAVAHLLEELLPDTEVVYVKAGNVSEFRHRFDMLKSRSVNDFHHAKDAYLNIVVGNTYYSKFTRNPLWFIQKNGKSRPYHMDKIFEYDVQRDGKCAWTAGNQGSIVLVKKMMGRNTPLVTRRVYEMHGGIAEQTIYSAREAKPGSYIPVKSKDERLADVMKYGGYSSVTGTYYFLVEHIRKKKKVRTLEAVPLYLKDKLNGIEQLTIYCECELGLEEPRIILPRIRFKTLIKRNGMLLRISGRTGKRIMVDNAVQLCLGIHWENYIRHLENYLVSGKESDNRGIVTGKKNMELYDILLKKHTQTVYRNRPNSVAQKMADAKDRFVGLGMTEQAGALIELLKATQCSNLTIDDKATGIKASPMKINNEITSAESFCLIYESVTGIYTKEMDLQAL

[2] = test system: T2, OMNI-136 (metagenomic, unknown); conditions: TXTL; PAM NNDRCNAA
T2 sequence: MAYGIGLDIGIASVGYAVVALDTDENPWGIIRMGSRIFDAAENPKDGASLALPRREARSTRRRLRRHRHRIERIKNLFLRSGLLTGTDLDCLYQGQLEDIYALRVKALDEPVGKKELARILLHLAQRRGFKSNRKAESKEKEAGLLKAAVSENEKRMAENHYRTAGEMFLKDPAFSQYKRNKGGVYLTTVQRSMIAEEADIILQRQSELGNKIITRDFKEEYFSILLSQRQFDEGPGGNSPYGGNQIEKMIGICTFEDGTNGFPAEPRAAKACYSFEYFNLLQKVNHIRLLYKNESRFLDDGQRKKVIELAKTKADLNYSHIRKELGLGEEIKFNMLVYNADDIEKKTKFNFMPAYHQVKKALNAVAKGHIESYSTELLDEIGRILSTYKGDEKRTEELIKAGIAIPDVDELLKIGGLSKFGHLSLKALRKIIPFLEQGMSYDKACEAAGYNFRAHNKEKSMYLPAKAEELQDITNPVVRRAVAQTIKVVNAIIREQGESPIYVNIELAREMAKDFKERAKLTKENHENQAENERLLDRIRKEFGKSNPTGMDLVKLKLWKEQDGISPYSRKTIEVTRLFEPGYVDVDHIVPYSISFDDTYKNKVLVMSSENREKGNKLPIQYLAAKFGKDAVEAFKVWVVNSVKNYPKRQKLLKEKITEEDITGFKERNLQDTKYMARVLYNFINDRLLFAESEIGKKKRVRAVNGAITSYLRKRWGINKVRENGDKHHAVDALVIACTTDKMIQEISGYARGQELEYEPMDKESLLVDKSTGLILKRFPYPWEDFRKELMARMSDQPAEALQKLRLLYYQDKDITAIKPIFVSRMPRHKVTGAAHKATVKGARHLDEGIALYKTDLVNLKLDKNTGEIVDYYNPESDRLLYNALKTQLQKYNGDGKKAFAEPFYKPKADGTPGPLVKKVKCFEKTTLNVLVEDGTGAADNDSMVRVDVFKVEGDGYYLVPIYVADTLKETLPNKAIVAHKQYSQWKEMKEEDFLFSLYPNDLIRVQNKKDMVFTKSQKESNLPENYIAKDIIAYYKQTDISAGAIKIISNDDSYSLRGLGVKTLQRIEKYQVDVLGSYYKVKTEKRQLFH

[3] = test system: T3, OMNI-92 (metagenomic, unknown); conditions: TXTL; PAM NNNNRYGA
T3 sequence: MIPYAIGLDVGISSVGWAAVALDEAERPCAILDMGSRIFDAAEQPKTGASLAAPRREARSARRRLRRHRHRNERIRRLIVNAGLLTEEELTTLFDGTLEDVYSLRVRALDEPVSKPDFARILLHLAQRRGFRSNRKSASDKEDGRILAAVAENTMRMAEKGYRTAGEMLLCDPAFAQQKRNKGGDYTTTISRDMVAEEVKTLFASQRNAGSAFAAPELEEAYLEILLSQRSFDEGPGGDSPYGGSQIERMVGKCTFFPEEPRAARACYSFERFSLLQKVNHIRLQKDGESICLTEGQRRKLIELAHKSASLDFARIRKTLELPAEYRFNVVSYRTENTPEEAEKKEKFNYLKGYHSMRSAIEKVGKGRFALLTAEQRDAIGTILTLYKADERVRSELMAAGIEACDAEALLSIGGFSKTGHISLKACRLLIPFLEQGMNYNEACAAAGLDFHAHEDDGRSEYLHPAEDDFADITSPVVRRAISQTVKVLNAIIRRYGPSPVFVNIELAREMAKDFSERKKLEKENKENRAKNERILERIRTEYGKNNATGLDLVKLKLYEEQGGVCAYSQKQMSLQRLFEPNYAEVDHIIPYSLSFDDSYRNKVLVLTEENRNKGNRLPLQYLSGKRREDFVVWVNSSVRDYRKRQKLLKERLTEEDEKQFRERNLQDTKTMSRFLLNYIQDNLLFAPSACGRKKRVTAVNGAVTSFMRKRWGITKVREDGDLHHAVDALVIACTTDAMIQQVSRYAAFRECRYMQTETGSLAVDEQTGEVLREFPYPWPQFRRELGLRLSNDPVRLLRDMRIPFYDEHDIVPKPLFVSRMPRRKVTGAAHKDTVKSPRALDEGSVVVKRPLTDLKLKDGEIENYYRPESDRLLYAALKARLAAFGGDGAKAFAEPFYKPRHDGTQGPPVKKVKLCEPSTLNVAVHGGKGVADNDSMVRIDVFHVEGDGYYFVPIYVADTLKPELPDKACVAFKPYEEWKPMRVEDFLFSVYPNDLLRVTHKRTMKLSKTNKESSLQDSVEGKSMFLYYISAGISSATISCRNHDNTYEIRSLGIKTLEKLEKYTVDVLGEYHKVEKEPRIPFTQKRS

[4] = test system: T4, OMNI-137 (metagenomic, unknown); conditions: TXTL; PAM NNRCRGNN
T4 sequence: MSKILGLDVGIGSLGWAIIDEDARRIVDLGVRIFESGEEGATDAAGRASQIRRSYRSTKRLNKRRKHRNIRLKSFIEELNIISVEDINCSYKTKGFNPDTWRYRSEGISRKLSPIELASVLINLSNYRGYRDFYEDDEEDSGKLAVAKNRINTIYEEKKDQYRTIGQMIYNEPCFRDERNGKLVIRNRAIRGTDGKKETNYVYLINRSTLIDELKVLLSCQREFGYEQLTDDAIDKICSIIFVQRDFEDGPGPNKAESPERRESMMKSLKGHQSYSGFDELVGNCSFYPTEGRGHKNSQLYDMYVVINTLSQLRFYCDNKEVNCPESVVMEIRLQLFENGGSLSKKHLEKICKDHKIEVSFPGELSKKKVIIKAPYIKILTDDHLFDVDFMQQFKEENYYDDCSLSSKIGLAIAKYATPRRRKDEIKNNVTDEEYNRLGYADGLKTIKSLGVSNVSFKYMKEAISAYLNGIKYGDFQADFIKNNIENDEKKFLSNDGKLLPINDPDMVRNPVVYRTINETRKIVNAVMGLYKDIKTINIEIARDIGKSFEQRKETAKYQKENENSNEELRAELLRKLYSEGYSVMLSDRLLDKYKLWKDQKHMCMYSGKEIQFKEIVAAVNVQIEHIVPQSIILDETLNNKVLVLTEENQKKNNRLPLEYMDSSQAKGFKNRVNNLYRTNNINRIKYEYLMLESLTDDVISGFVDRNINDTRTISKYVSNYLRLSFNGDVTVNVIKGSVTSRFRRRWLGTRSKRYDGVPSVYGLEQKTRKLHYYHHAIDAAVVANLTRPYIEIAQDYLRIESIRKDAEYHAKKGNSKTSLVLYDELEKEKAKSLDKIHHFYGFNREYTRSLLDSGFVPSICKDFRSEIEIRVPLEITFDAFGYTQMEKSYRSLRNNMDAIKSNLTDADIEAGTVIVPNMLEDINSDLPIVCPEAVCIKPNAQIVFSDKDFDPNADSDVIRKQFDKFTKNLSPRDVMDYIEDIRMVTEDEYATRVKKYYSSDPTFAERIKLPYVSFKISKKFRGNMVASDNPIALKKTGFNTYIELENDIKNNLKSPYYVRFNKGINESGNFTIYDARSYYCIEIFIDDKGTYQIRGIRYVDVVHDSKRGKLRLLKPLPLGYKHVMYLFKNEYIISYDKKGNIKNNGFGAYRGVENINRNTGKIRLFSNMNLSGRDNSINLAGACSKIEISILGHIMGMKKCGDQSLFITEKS

## GGAAGAGCAGAGCCUUGGUCUCGUUUGAGAACCUUGUAAGAAAUUACAAGGUGAGUGCAAAUAAGGAUUUUUCCGAAAUCACUCCUCAUGGAUGUCCGCAUUGUGCGGUGAAAAAGACUCUGUUUAGAGUCUUUUUU / GGAAGAGCAGAGCCTTGGTCTCNNNNNNNN / NNNNNNNNGAGACCAAGGCTCTGCTCTTCC [T2 sgRNA 35 V1 ; T2 protospacer + 8N PAM library (pbPOS T2)]
[1]
  activity (1-depletion score): 0.95

## GGAAGAGCAGAGCCUUGGUCUCGUUGUAGUUCCCUGUUAAUGAAAAUUUUCGGGUUACUAUGAUAAGGUAGAACACCGAAAAGCUCUAACGCCUUGCCAUUUGGUGAGGCGUUAUCUUUUUU / GGAAGAGCAGAGCCTTGGTCTCNNNNNNNN / NNNNNNNNGAGACCAAGGCTCTGCTCTTCC [T2 sgRNA 36 V1 ; T2 protospacer + 8N PAM library (pbPOS T2)]
[2]
  activity (1-depletion score): 0.97

## GGAAGAGCAGAGCCUUGGUCUCGUUGUAGUUCCCUGAUCGUGAAAACGAUCAGGUUGCUACAAUAAGGUAGUACACCGAAGAGCUCUAACGCCCCGUUUUGCGGGGCGUUAUCUCUUUUUUU / GGAAGAGCAGAGCCTTGGTCTCNNNNNNNN / NNNNNNNNGAGACCAAGGCTCTGCTCTTCC [T2 sgRNA 3 V1 ; T2 protospacer + 8N PAM library (pbPOS T2)]
[3]
  activity (1-depletion score): 0.97

## GGAAGAGCAGAGCCUUGGUCUCGUUUUAGUUCUCGGACGAAAGUCCGAGAAUCUAAGAUAAAGCUAUAUGCUGUGGGGUUGCGUAUCCCCUUAUCGAACGUACUAAGAUGAGUUUCGGCUCAUCUUUUUU / GGAAGAGCAGAGCCTTGGTCTCNNNNNNNN / NNNNNNNNGAGACCAAGGCTCTGCTCTTCC [T2 sgRNA 37 V1 ; T2 protospacer + 8N PAM library (pbPOS T2)]
[4]
  activity (1-depletion score): 0.97
